Source: patent US20170088610A1 (RINAT NEUROSCIENCE, published 2017)

B1: 8L2-6D5 Fab with CDR H3 mutation D109G (Fab, V domains shown)
VH: QVQLQESGPGLVKPSETLSLTCTVSGFSLIGYDINWIRQPPGKGLEWIGMIWGDGTTDYNSALKSRVTISKDTSKNQFSLKLSSVTAADTAVYYCARGGYYYGTSYYFGYWGQGTLVTVS
VL: DIQMTQSPSSLSASVGDRVTITCRASQDISNHLNWYQQKPGKAPKLLIYYISRFHSGVPSRFSGSGSGTDFTFTISSLQPEDIATYYCQQSKTLPYTFGQGTKLEIKR
notes: See note of m8
B2: 8L2-6D5 Fab with CDR H3 mutation D109N (Fab, V domains shown)
VH: QVQLQESGPGLVKPSETLSLTCTVSGFSLIGYDINWIRQPPGKGLEWIGMIWGDGTTDYNSALKSRVTISKDTSKNQFSLKLSSVTAADTAVYYCARGGYYYGTSYYFNYWGQGTLVTVS
VL: DIQMTQSPSSLSASVGDRVTITCRASQDISNHLNWYQQKPGKAPKLLIYYISRFHSGVPSRFSGSGSGTDFTFTISSLQPEDIATYYCQQSKTLPYTFGQGTKLEIKR
notes: See note of m8
B3: 8L2-6D5 Fab with CDR H3 mutation F108W (Fab, V domains shown)
VH: QVQLQESGPGLVKPSETLSLTCTVSGFSLIGYDINWIRQPPGKGLEWIGMIWGDGTTDYNSALKSRVTISKDTSKNQFSLKLSSVTAADTAVYYCARGGYYYGTSYYWDYWGQGTLVTVS
VL: DIQMTQSPSSLSASVGDRVTITCRASQDISNHLNWYQQKPGKAPKLLIYYISRFHSGVPSRFSGSGSGTDFTFTISSLQPEDIATYYCQQSKTLPYTFGQGTKLEIKR
notes: See note of m8
B4: 8L2-6D5 Fab with CDR H3 mutation G103A (Fab, V domains shown)
VH: QVQLQESGPGLVKPSETLSLTCTVSGFSLIGYDINWIRQPPGKGLEWIGMIWGDGTTDYNSALKSRVTISKDTSKNQFSLKLSSVTAADTAVYYCARGGYYYATSYYFDYWGQGTLVTVS
VL: DIQMTQSPSSLSASVGDRVTITCRASQDISNHLNWYQQKPGKAPKLLIYYISRFHSGVPSRFSGSGSGTDFTFTISSLQPEDIATYYCQQSKTLPYTFGQGTKLEIKR
notes: A103 is the E3 residue, so it is kept; See note of m8
B5: 8L2-6D5 Fab with CDR H3 mutation S105A (Fab, V domains shown)
VH: QVQLQESGPGLVKPSETLSLTCTVSGFSLIGYDINWIRQPPGKGLEWIGMIWGDGTTDYNSALKSRVTISKDTSKNQFSLKLSSVTAADTAVYYCARGGYYYGTAYYFDYWGQGTLVTVS
VL: DIQMTQSPSSLSASVGDRVTITCRASQDISNHLNWYQQKPGKAPKLLIYYISRFHSGVPSRFSGSGSGTDFTFTISSLQPEDIATYYCQQSKTLPYTFGQGTKLEIKR
notes: See note of m8
B6: 8L2-6D5 Fab with CDR H3 mutation S105T (Fab, V domains shown)
VH: QVQLQESGPGLVKPSETLSLTCTVSGFSLIGYDINWIRQPPGKGLEWIGMIWGDGTTDYNSALKSRVTISKDTSKNQFSLKLSSVTAADTAVYYCARGGYYYGTTYYFDYWGQGTLVTVS
VL: DIQMTQSPSSLSASVGDRVTITCRASQDISNHLNWYQQKPGKAPKLLIYYISRFHSGVPSRFSGSGSGTDFTFTISSLQPEDIATYYCQQSKTLPYTFGQGTKLEIKR
notes: See note of m8
B7: 8L2-6D5 Fab with CDR H3 mutation T104S (Fab, V domains shown)
VH: QVQLQESGPGLVKPSETLSLTCTVSGFSLIGYDINWIRQPPGKGLEWIGMIWGDGTTDYNSALKSRVTISKDTSKNQFSLKLSSVTAADTAVYYCARGGYYYGSSYYFDYWGQGTLVTVS
VL: DIQMTQSPSSLSASVGDRVTITCRASQDISNHLNWYQQKPGKAPKLLIYYISRFHSGVPSRFSGSGSGTDFTFTISSLQPEDIATYYCQQSKTLPYTFGQGTKLEIKR
notes: See note of m8; also called T1045 (so in the source)
B8: 8L2-6D5 Fab with CDR H3 mutation Y100L (Fab, V domains shown)
VH: QVQLQESGPGLVKPSETLSLTCTVSGFSLIGYDINWIRQPPGKGLEWIGMIWGDGTTDYNSALKSRVTISKDTSKNQFSLKLSSVTAADTAVYYCARGGLYYGTSYYFDYWGQGTLVTVS
VL: DIQMTQSPSSLSASVGDRVTITCRASQDISNHLNWYQQKPGKAPKLLIYYISRFHSGVPSRFSGSGSGTDFTFTISSLQPEDIATYYCQQSKTLPYTFGQGTKLEIKR
notes: See note of m8
B9: 8L2-6D5 Fab with CDR H3 mutation Y100R (Fab, V domains shown)
VH: QVQLQESGPGLVKPSETLSLTCTVSGFSLIGYDINWIRQPPGKGLEWIGMIWGDGTTDYNSALKSRVTISKDTSKNQFSLKLSSVTAADTAVYYCARGGRYYGTSYYFDYWGQGTLVTVS
VL: DIQMTQSPSSLSASVGDRVTITCRASQDISNHLNWYQQKPGKAPKLLIYYISRFHSGVPSRFSGSGSGTDFTFTISSLQPEDIATYYCQQSKTLPYTFGQGTKLEIKR
notes: See note of m8
B10: 8L2-6D5 Fab with CDR H3 mutation Y101W (Fab, V domains shown)
VH: QVQLQESGPGLVKPSETLSLTCTVSGFSLIGYDINWIRQPPGKGLEWIGMIWGDGTTDYNSALKSRVTISKDTSKNQFSLKLSSVTAADTAVYYCARGGYWYGTSYYFDYWGQGTLVTVS
VL: DIQMTQSPSSLSASVGDRVTITCRASQDISNHLNWYQQKPGKAPKLLIYYISRFHSGVPSRFSGSGSGTDFTFTISSLQPEDIATYYCQQSKTLPYTFGQGTKLEIKR
notes: W101 is the E3 residue, so it is kept; See note of m8
B11: 8L2-6D5 Fab with CDR H3 mutation Y106M (Fab, V domains shown)
VH: QVQLQESGPGLVKPSETLSLTCTVSGFSLIGYDINWIRQPPGKGLEWIGMIWGDGTTDYNSALKSRVTISKDTSKNQFSLKLSSVTAADTAVYYCARGGYYYGTSMYFDYWGQGTLVTVS
VL: DIQMTQSPSSLSASVGDRVTITCRASQDISNHLNWYQQKPGKAPKLLIYYISRFHSGVPSRFSGSGSGTDFTFTISSLQPEDIATYYCQQSKTLPYTFGQGTKLEIKR
notes: See note of m8
B12: 8L2-6D5 Fab with CDR H3 mutation Y106R (Fab, V domains shown)
VH: QVQLQESGPGLVKPSETLSLTCTVSGFSLIGYDINWIRQPPGKGLEWIGMIWGDGTTDYNSALKSRVTISKDTSKNQFSLKLSSVTAADTAVYYCARGGYYYGTSRYFDYWGQGTLVTVS
VL: DIQMTQSPSSLSASVGDRVTITCRASQDISNHLNWYQQKPGKAPKLLIYYISRFHSGVPSRFSGSGSGTDFTFTISSLQPEDIATYYCQQSKTLPYTFGQGTKLEIKR
notes: See note of m8
B13: 8L2-6D5 Fab with CDR H3 mutation Y106T (Fab, V domains shown)
VH: QVQLQESGPGLVKPSETLSLTCTVSGFSLIGYDINWIRQPPGKGLEWIGMIWGDGTTDYNSALKSRVTISKDTSKNQFSLKLSSVTAADTAVYYCARGGYYYGTSTYFDYWGQGTLVTVS
VL: DIQMTQSPSSLSASVGDRVTITCRASQDISNHLNWYQQKPGKAPKLLIYYISRFHSGVPSRFSGSGSGTDFTFTISSLQPEDIATYYCQQSKTLPYTFGQGTKLEIKR
notes: See note of m8
B14: 8L2-6D5 Fab with CDR H3 mutation Y107F (Fab, V domains shown)
VH: QVQLQESGPGLVKPSETLSLTCTVSGFSLIGYDINWIRQPPGKGLEWIGMIWGDGTTDYNSALKSRVTISKDTSKNQFSLKLSSVTAADTAVYYCARGGYYYGTSYFFDYWGQGTLVTVS
VL: DIQMTQSPSSLSASVGDRVTITCRASQDISNHLNWYQQKPGKAPKLLIYYISRFHSGVPSRFSGSGSGTDFTFTISSLQPEDIATYYCQQSKTLPYTFGQGTKLEIKR
notes: See note of m8
B15: 8L2-6D5 Fab with CDR H3 mutation Y110K (Fab, V domains shown)
VH: QVQLQESGPGLVKPSETLSLTCTVSGFSLIGYDINWIRQPPGKGLEWIGMIWGDGTTDYNSALKSRVTISKDTSKNQFSLKLSSVTAADTAVYYCARGGYYYGTSYYFDKWGQGTLVTVS
VL: DIQMTQSPSSLSASVGDRVTITCRASQDISNHLNWYQQKPGKAPKLLIYYISRFHSGVPSRFSGSGSGTDFTFTISSLQPEDIATYYCQQSKTLPYTFGQGTKLEIKR
notes: See note of m8
B16: 8L2-6D5 Fab with CDR H3 mutation Y110R (Fab, V domains shown)
VH: QVQLQESGPGLVKPSETLSLTCTVSGFSLIGYDINWIRQPPGKGLEWIGMIWGDGTTDYNSALKSRVTISKDTSKNQFSLKLSSVTAADTAVYYCARGGYYYGTSYYFDRWGQGTLVTVS
VL: DIQMTQSPSSLSASVGDRVTITCRASQDISNHLNWYQQKPGKAPKLLIYYISRFHSGVPSRFSGSGSGTDFTFTISSLQPEDIATYYCQQSKTLPYTFGQGTKLEIKR
notes: See note of m8
B17: 8L2-6D5 Fab with CDR H3 mutation Y110S (Fab, V domains shown)
VH: QVQLQESGPGLVKPSETLSLTCTVSGFSLIGYDINWIRQPPGKGLEWIGMIWGDGTTDYNSALKSRVTISKDTSKNQFSLKLSSVTAADTAVYYCARGGYYYGTSYYFDSWGQGTLVTVS
VL: DIQMTQSPSSLSASVGDRVTITCRASQDISNHLNWYQQKPGKAPKLLIYYISRFHSGVPSRFSGSGSGTDFTFTISSLQPEDIATYYCQQSKTLPYTFGQGTKLEIKR
notes: See note of m8
B18: 8L2-6D5 Fab with CDR H3 mutation Y110T (Fab, V domains shown)
VH: QVQLQESGPGLVKPSETLSLTCTVSGFSLIGYDINWIRQPPGKGLEWIGMIWGDGTTDYNSALKSRVTISKDTSKNQFSLKLSSVTAADTAVYYCARGGYYYGTSYYFDTWGQGTLVTVS
VL: DIQMTQSPSSLSASVGDRVTITCRASQDISNHLNWYQQKPGKAPKLLIYYISRFHSGVPSRFSGSGSGTDFTFTISSLQPEDIATYYCQQSKTLPYTFGQGTKLEIKR
notes: See note of m8
B19: 8L2-6D5 Fab with CDR L3 mutation S91E (Fab, V domains shown)
VH: QVQLQESGPGLVKPSETLSLTCTVSGFSLIGYDINWIRQPPGKGLEWIGMIWGDGTTDYNSALKSRVTISKDTSKNQFSLKLSSVTAADTAVYYCARGGYYYGTSYYFDYWGQGTLVTVS
VL: DIQMTQSPSSLSASVGDRVTITCRASQDISNHLNWYQQKPGKAPKLLIYYISRFHSGVPSRFSGSGSGTDFTFTISSLQPEDIATYYCQQEKTLPYTFGQGTKLEIKR
notes: E91 is the E3 residue, so it is kept; See note of m8

Tests used:
[1] = molecular target: T1, human nerve growth factor (human, UniProt P01138 122-241); test: BIAcore SPR screen, Fab over immobilised human NGF; KD calculated from koff with kon 4e4 M-1s-1
T1 construct: Immobilised on CM5 chips for BIAcore, soluble in neuron survival assays; also called human NGF; hNGF
Procedure: (§1) A screening BIAcore assay was optimized to determine the affinity of Fab clones from libraries. Supernatants of small culture lysates were injected at […] for 2 min. Dissociation times of 10 to 15 minutes were used for determination of a single exponential dissociation rate (koff) using BIAevaluation software. […] Clones showing improved (slower) koff values were expressed at large scale and full kinetic parameters, kₒₙ and koff, were determined on purified protein.
(§2) 20-80 clones from each small library were screened using BIAcore analysis as described herein. Samples were simultaneously analyzed by BIAcore for binding affinity to NGF in one channel of the BIAcore chip and for presence of Fab by binding to a penta-histag antibody in another channel of the sensor chip, to detect the his tag at the C terminus of the heavy chain. Clones that expressed protein were classified as having the same affinity, worse affinity, better affinity or no binding, using koff to classify: The results of this analysis are shown in Table 5.

[2] = molecular target: T1, human nerve growth factor; test: BIAcore SPR screen, Fab over immobilised human NGF
Procedure: as §1, §2

T1 sequence (P01138 122-241 limits assumed): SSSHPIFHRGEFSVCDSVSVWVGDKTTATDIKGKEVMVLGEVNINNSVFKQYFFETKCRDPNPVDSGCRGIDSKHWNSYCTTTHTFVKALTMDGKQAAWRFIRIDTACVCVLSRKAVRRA

| Binder | Kd [1] | koff [2] |
| --- | --- | --- |
| B1 | 25 nM | 0.001 s⁻¹ |
| B2 | 37 nM | 0.0015 s⁻¹ |
| B3 | 30 nM | 0.00122 s⁻¹ |
| B4 | 4 nM | 0.00016 s⁻¹ |
| B5 | 13 nM | 0.00051 s⁻¹ |
| B6 | 16 nM | 0.00064 s⁻¹ |
| B7 | 55 nM | 0.0022 s⁻¹ |
| B8 | 30 nM | 0.0012 s⁻¹ |
| B9 | 27 nM | 0.0011 s⁻¹ |
| B10 | 14 nM | 0.00056 s⁻¹ |
| B11 | 67 nM | 0.0027 s⁻¹ |
| B12 | 40 nM | 0.0016 s⁻¹ |
| B13 | 50 nM | 0.002 s⁻¹ |
| B14 | 35 nM | 0.0014 s⁻¹ |
| B15 | 35 nM | 0.0014 s⁻¹ |
| B16 | 40 nM | 0.0016 s⁻¹ |
| B17 | 37 nM | 0.0015 s⁻¹ |
| B18 | 42 nM | 0.0017 s⁻¹ |
| B19 | 6 nM | 0.00025 s⁻¹ |
